Results as given in the supplement of paper PMC7125110.
± gives the standard error. This sample holds only a part of the variants without activity.

B1: glmS ribozyme (parent)
chain: AUAAAAGCGCCAGAACUACAGAAAUGUAGUUGACGAGGAGGAGGUUUAUCGAAUUUUCGGCGGAUGCCUCCAAA

Variants of: B1
Test: self-cleavage kobs at 10000 uM GlcN6P; higher = faster cleavage; RNA array
Conditions: with glucosamine-6-phosphate
Outline: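 kcat and KM were obtained from weighted Michaelis–Menten fits across concentrations of kobs values. Those came from one- or two-exponential decay fits to per-tile medians normalised to baseline and to non-cleaving reference variants. The variants were barcoded ribozymes transcribed in situ by E. coli RNA polymerase on sequenced MiSeq chips and tracked through a hybridised Cy3 probe at 37 °C, with 40 μM to 10 mM glucosamine-6-phosphate in HEPES/KCl/Mg(OAc)2 buffer flowed in.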
In the case of U30C U55C C70U, the “self-cleavage kobs at 10000 uM GlcN6P” value is reported as 8.64e-05 ± 1.7e-05 s⁻¹.
C16G U47A C61G was tested, and the “self-cleavage kobs at 10000 uM GlcN6P” value was less than 1e-05 s⁻¹.
C10G C11A G38C G43U G51C U56C G60C was tested, and the “self-cleavage kobs at 10000 uM GlcN6P” value was less than 1e-05 s⁻¹.
In the case of A42G U46G U56C, the “self-cleavage kobs at 10000 uM GlcN6P” value is reported as 0.00095 ± 0.0002 s⁻¹.
C10A C11G C16G A48U C50G C70A was tested, and the “self-cleavage kobs at 10000 uM GlcN6P” value was 6.85e-05 ± 1.8e-05 s⁻¹.
C50G G62C C70A was tested, and the “self-cleavage kobs at 10000 uM GlcN6P” value was 0.000153 ± 4.6e-05 s⁻¹.
In the case of A12G A14C U31C U47G A52G G59A G60U, the “self-cleavage kobs at 10000 uM GlcN6P” value is reported as less than 1e-05 s⁻¹.
For A64G C70A, the “self-cleavage kobs at 10000 uM GlcN6P” value was 3.24e-05 ± 9.8e-06 s⁻¹.
With G7U A48G C50G C61G the “self-cleavage kobs at 10000 uM GlcN6P” value was 0.000895 ± 0.00024 s⁻¹.
In the case of C50G A53U C71G, the “self-cleavage kobs at 10000 uM GlcN6P” value is reported as 0.000148 ± 4e-05 s⁻¹.
In the case of A33C U46C, the “self-cleavage kobs at 10000 uM GlcN6P” value is reported as 4.16e-05 ± 1.7e-05 s⁻¹.
U31A A42G U46C was tested, and the “self-cleavage kobs at 10000 uM GlcN6P” value was 0.000411 ± 9.2e-05 s⁻¹.
With G7C A14U U47A the “self-cleavage kobs at 10000 uM GlcN6P” value was less than 1e-05 s⁻¹.
In the case of A15C A53U C71G, the “self-cleavage kobs at 10000 uM GlcN6P” value is reported as 0.000151 ± 3.6e-05 s⁻¹.
In the case of C11U A52G G63C U69G, the “self-cleavage kobs at 10000 uM GlcN6P” value is reported as 8.28e-05 ± 1.9e-05 s⁻¹.
For A14U A39C U65C, the “self-cleavage kobs at 10000 uM GlcN6P” value was 6.04e-05 ± 1.6e-05 s⁻¹.
With C8A C11U C34U A39U C58A C67U the “self-cleavage kobs at 10000 uM GlcN6P” value was less than 1e-05 s⁻¹.
With A6U G29U G62C the “self-cleavage kobs at 10000 uM GlcN6P” value was less than 1e-05 s⁻¹.
G9U A15C G62A was tested, and the “self-cleavage kobs at 10000 uM GlcN6P” value was less than 1e-05 s⁻¹.
For A12C A15U U31C, the “self-cleavage kobs at 10000 uM GlcN6P” value was 6.96e-05 ± 1.7e-05 s⁻¹.
For U31C G35A G40C C58U G60A, the “self-cleavage kobs at 10000 uM GlcN6P” value was less than 1e-05 s⁻¹.
For A14G C50G C70U, the “self-cleavage kobs at 10000 uM GlcN6P” value was 9.53e-05 ± 1.4e-05 s⁻¹.
In the case of G7C C34A A48G U56G C71U, the “self-cleavage kobs at 10000 uM GlcN6P” value is reported as less than 1e-05 s⁻¹.
In the case of U55A A64U C71A, the “self-cleavage kobs at 10000 uM GlcN6P” value is reported as 4.3e-05 ± 1.9e-05 s⁻¹.
For A6U C10U G44A C50U, the “self-cleavage kobs at 10000 uM GlcN6P” value was less than 1e-05 s⁻¹.
For C8U G40U C61U C67U, the “self-cleavage kobs at 10000 uM GlcN6P” value was less than 1e-05 s⁻¹.
In the case of U55G G59U, the “self-cleavage kobs at 10000 uM GlcN6P” value is reported as 4.4e-05 ± 1.1e-05 s⁻¹.
G29C G32C A39G was tested, and the “self-cleavage kobs at 10000 uM GlcN6P” value was 7.25e-05 ± 1.8e-05 s⁻¹.
In the case of A15C A36C C67A, the “self-cleavage kobs at 10000 uM GlcN6P” value is reported as less than 1e-05 s⁻¹.
For A12C G38U A52U C58A U65A C67U, the “self-cleavage kobs at 10000 uM GlcN6P” value was less than 1e-05 s⁻¹.
In the case of G29A C58G, the “self-cleavage kobs at 10000 uM GlcN6P” value is reported as 6.15e-05 ± 1.1e-05 s⁻¹.
C11A U45A U46G was tested, and the “self-cleavage kobs at 10000 uM GlcN6P” value was 0.000161 ± 4e-05 s⁻¹.
With G7A G13C G60A the “self-cleavage kobs at 10000 uM GlcN6P” value was less than 1e-05 s⁻¹.
In the case of A15G C16U A39U, the “self-cleavage kobs at 10000 uM GlcN6P” value is reported as 0.00651 ± 0.0013 s⁻¹.
In the case of G26U U69A, the “self-cleavage kobs at 10000 uM GlcN6P” value is reported as 6.81e-05 ± 2.1e-05 s⁻¹.
In the case of G9A C34A A64G C70G, the “self-cleavage kobs at 10000 uM GlcN6P” value is reported as less than 1e-05 s⁻¹.
With G32U A39G U69A the “self-cleavage kobs at 10000 uM GlcN6P” value was 0.000121 ± 3.2e-05 s⁻¹.
For A6C C16U G29C C58A, the “self-cleavage kobs at 10000 uM GlcN6P” value was less than 1e-05 s⁻¹.
With G32C A36U G37A C61A C67U the “self-cleavage kobs at 10000 uM GlcN6P” value was 9.54e-05 ± 1.4e-05 s⁻¹.
For C16A G41A G51C, the “self-cleavage kobs at 10000 uM GlcN6P” value was less than 1e-05 s⁻¹.
With U30A U65A C71U the “self-cleavage kobs at 10000 uM GlcN6P” value was 0.000453 ± 8.5e-05 s⁻¹.
With C11U A15G A52G the “self-cleavage kobs at 10000 uM GlcN6P” value was 0.0001 ± 2.4e-05 s⁻¹.
With C34G A64C C67A the “self-cleavage kobs at 10000 uM GlcN6P” value was less than 1e-05 s⁻¹.
U56A U69C C71G was tested, and the “self-cleavage kobs at 10000 uM GlcN6P” value was 8.19e-05 ± 2e-05 s⁻¹.
For G60A C68U C70U, the “self-cleavage kobs at 10000 uM GlcN6P” value was less than 1e-05 s⁻¹.
G29C U46G A64U was tested, and the “self-cleavage kobs at 10000 uM GlcN6P” value was less than 1e-05 s⁻¹.
A14U A64C was tested, and the “self-cleavage kobs at 10000 uM GlcN6P” value was 2.75e-05 ± 1.3e-05 s⁻¹.
With G37C U55G the “self-cleavage kobs at 10000 uM GlcN6P” value was 3.62e-05 ± 8.4e-06 s⁻¹.
In the case of U47A G59A C71U, the “self-cleavage kobs at 10000 uM GlcN6P” value is reported as 6.73e-05 ± 2.5e-05 s⁻¹.
In the case of A52U G66C, the “self-cleavage kobs at 10000 uM GlcN6P” value is reported as 4.08e-05 ± 1.2e-05 s⁻¹.
With G13C A36C U54C the “self-cleavage kobs at 10000 uM GlcN6P” value was less than 1e-05 s⁻¹.
C16U G38A A52G C71G was tested, and the “self-cleavage kobs at 10000 uM GlcN6P” value was less than 1e-05 s⁻¹.
For A36C G37C A53U U69C, the “self-cleavage kobs at 10000 uM GlcN6P” value was less than 1e-05 s⁻¹.
In the case of C8A A36G U57C, the “self-cleavage kobs at 10000 uM GlcN6P” value is reported as less than 1e-05 s⁻¹.
In the case of A12U G13C A52U G60A A64C, the “self-cleavage kobs at 10000 uM GlcN6P” value is reported as less than 1e-05 s⁻¹.
In the case of A12C G37A A39C, the “self-cleavage kobs at 10000 uM GlcN6P” value is reported as 0.000849 ± 0.00015 s⁻¹.
In the case of U49A U54C C67G, the “self-cleavage kobs at 10000 uM GlcN6P” value is reported as less than 1e-05 s⁻¹.
For C11U U55G U65A, the “self-cleavage kobs at 10000 uM GlcN6P” value was 4.36e-05 ± 2e-05 s⁻¹.
With A12U G44A A52U the “self-cleavage kobs at 10000 uM GlcN6P” value was 4.81e-05 ± 2e-05 s⁻¹.
In the case of C11A A42G C67U, the “self-cleavage kobs at 10000 uM GlcN6P” value is reported as 4.66e-05 ± 1.8e-05 s⁻¹.
A39U A52U U56G was tested, and the “self-cleavage kobs at 10000 uM GlcN6P” value was 8.75e-05 ± 1.8e-05 s⁻¹.
In the case of C10A C16U A52C, the “self-cleavage kobs at 10000 uM GlcN6P” value is reported as less than 1e-05 s⁻¹.
With C34A G35C A48U the “self-cleavage kobs at 10000 uM GlcN6P” value was less than 1e-05 s⁻¹.
A14U A53U U56G C58U was tested, and the “self-cleavage kobs at 10000 uM GlcN6P” value was 3.75e-05 ± 8.7e-06 s⁻¹.
With A6U G38A G66C the “self-cleavage kobs at 10000 uM GlcN6P” value was less than 1e-05 s⁻¹.
A12G G41U C70U was tested, and the “self-cleavage kobs at 10000 uM GlcN6P” value was 0.00122 ± 0.00022 s⁻¹.
With A12G U55A C68U the “self-cleavage kobs at 10000 uM GlcN6P” value was 0.00042 ± 0.0001 s⁻¹.
With A48G C58A the “self-cleavage kobs at 10000 uM GlcN6P” value was 4.59e-05 ± 1.1e-05 s⁻¹.
For G35C A48G G59U G60A, the “self-cleavage kobs at 10000 uM GlcN6P” value was less than 1e-05 s⁻¹.
With C8A A15G A39C C70G the “self-cleavage kobs at 10000 uM GlcN6P” value was less than 1e-05 s⁻¹.
A39G G60A was tested, and the “self-cleavage kobs at 10000 uM GlcN6P” value was 2.33e-05 ± 1.2e-05 s⁻¹.
With C10U A36C U69G the “self-cleavage kobs at 10000 uM GlcN6P” value was 0.000116 ± 2.9e-05 s⁻¹.
For A6G C16G C50G, the “self-cleavage kobs at 10000 uM GlcN6P” value was 5.57e-05 ± 2.1e-05 s⁻¹.
G32U A53G C67G was tested, and the “self-cleavage kobs at 10000 uM GlcN6P” value was 0.000238 ± 3.8e-05 s⁻¹.
In the case of G51U A53U G60U C70U, the “self-cleavage kobs at 10000 uM GlcN6P” value is reported as less than 1e-05 s⁻¹.
A12U G59A C67G was tested, and the “self-cleavage kobs at 10000 uM GlcN6P” value was 4.16e-05 ± 1.6e-05 s⁻¹.
A36U G40A G43C A52G was tested, and the “self-cleavage kobs at 10000 uM GlcN6P” value was 0.00106 ± 0.00036 s⁻¹.
